Source: patent US20250011406A1 (US Dept. of Health and Human Services, published 2025)
No end group written: not given here.

T1: peptide NANP5, penta-NANP repeat (not fully specified; biotinylated)
T1 construct: Printed only as the formula (NANP)5 / NANP5
T1 peptide: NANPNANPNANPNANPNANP

T2: NPDP19-KLH conjugate (Plasmodium falciparum, also: conjugated to KLH carrier via maleimide linker, site not given here)
T2 construct: not shown: KLH carrier protein (about 390 kDa)
T2 peptide: KQPADGNPDPNANPNVDPN


Legend:
[1] = target: T3, mature CIS43 antibody (IgG); assay: competition ELISA (MSD): peptide pre-incubated with CIS43, read-out CIS43 bound to plate-bound rPfCSP
T3 construct: also called CIS43 WT
Description: Peptides were all 15 amino acids in length, overlapping by 11 residues, and numbered according to their position on the protein. Briefly, streptavidin-coated plates (Meso Scale Discovery, MSD) were blocked with 5% BSA in PBS for 30 min at room temperature (RT), washed five times (wash buffer, 0.05% Tween-20 in PBS), then coated with biotinylated-recombinant PfCSP (0.2 μg/mL, Genscript) in PBS with 1% BSA, and allowed to incubate for 1 h at RT. […] Plates were incubated for 1 h at RT, washed five times, then incubated for an additional 1 h at RT with 1 μg/mL of appropriate secondary (either anti-human or anti-mouse) IgG SULFO-TAG (Meso Scale Discovery) in PBS with 1% BSA/0.05% Tween-20. After washing, plates were read using 1×MSD Read T Buffer (Meso Scale Discovery) on an MSD SECTOR © Imager 6000 instrument.

[2] = target: T1, peptide NANP5, penta-NANP repeat; assay: BLI (Octet), Fab on biotinylated NANP5 peptide
Description: (§1) Affinity measurements by BLI. Antibody Fab binding affinity to various ligands were measured using biolayer interferometry on an Octet Red384 instrument (fortdBio) with streptavidin capture biosensors (fortdBio) in solid black tilt-well 96-well plates (Geiger Bio-One). Assays were performed with agitation at 25° C. […] In all Octet measurements, parallel correction to subtract systematic baseline drift was carried out by subtracting the measurements recorded for a loaded sensor incubated in PBS. Data analysis was carried out using Octet software, version 9.0. Experimental data were fitted globally with a 1:1 Langmuir model of binding.

[3] = target: T4, recombinant Plasmodium falciparum circumsporozoite protein (rPfCSP), biotinylated (Plasmodium falciparum, UniProt P19597 21-375); assay: BLI (Octet), Fab on biotinylated rPfCSP; 2-component fit, primary KD
Description: as §1

[4] = target: T4, recombinant Plasmodium falciparum …; assay: BLI (Octet), Fab on biotinylated rPfCSP; 2-component fit, second KD (KD2)
Description: as §1

NPDP19-KLH conjugate = target: T2, NPDP19-KLH conjugate; assay: ELISA on NPDP19-KLH

T4 sequence (P19597 21-375 limits assumed): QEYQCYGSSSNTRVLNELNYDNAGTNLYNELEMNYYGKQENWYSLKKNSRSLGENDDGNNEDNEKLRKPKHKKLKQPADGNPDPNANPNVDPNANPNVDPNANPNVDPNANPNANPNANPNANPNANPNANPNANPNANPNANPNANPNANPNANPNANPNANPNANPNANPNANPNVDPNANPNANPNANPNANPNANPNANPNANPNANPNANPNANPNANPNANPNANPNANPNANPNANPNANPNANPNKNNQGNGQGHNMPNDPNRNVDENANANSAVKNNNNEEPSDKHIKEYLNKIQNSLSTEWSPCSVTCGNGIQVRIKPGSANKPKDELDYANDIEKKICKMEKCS
T3 sequence (heavy, as listed by the source, chain 1 of 2): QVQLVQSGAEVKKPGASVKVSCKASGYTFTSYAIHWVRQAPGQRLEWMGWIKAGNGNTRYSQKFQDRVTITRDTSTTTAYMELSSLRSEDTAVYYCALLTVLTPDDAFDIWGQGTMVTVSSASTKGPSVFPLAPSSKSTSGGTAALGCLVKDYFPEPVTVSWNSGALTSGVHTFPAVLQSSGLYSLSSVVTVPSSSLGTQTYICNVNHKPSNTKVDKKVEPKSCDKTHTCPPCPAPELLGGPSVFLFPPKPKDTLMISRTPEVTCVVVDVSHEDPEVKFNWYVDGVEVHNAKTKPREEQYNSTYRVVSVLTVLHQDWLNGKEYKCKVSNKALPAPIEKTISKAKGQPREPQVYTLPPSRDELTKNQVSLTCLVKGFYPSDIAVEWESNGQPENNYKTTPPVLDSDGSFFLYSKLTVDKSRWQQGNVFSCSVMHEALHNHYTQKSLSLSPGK
T3 sequence (light, as listed by the source, chain 2 of 2): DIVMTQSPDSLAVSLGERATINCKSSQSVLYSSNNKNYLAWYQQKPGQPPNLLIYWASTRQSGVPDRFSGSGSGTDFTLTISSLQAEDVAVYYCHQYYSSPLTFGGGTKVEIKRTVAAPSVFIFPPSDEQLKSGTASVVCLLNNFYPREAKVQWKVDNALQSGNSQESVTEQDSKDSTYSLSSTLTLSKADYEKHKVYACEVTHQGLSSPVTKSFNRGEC

Row | Binder | binding result [1] | Kd [2] [nM] | Kd [3] [nM] | Kd [4] [nM] | binding result (NPDP19-KLH conjugate)
1 | NANPNANPNVDPNAN (also called PfCSP peptide 43) [43: NANPNANPNVDPNAN] | binds |  |  |  | 
2 | NANPNVDPNANPNAN (also called PfCSP peptide 44) [44: NANPNVDPNANPNAN] | binds |  |  |  | 
3 | iGL-CIS43-HL.K28.m43.151 Fab (Fab, V domains shown, also called m43_HH28K.17) VH: QVHLVQSGAEVKKPGASVKVSCKASGYTFTSYAIHWVRQAPGQRLEWMGWIKGGNGNTRYSQKFQDRVTITRDTSASTAYMELSSLRSEDTAVYYCALLTVITPDDAFDIWGQGTMVTVSS VL: not shown |  | 715 | 38.3 | 1700 | 
4 | iGL-CIS43-HL.K28.m42.127 Fab (Fab, V domains shown, also called m42_HH28K.13) VH: QVQLVQSGAEVKKPGASVKVSCKASGYTFTSYAIHWVRQAPGQRLEWMGWIKAGNGNTRYSQKFQDRVTITRDTSASTAYMELSSLRSEDTAVYYCALLTVITPDDTFDIWGQGTMVTVSS VL: not shown |  | 952 | 31.6 | 1980 | 
5 | mature CIS43 Fab (Fab, V domains shown, also called CIS43 mature; CIS43 WT) VH: QVQLVQSGAEVKKPGASVKVSCKASGYTFTSYAIHWVRQAPGQRLEWMGWIKAGNGNTRYSQKFQDRVTITRDTSTTTAYMELSSLRSEDTAVYYCALLTVLTPDDAFDIWGQGTMVTVSS VL: not shown |  | 411 | 45.2 | 1330 | 
6 | inferred germline CIS43 (iGL-CIS43) mAb (IgG) (antibody, V domains shown, also called CIS43 gHgL; iGL-CIS43_UCA) VH: QVQLVQSGAEVKKPGASVKVSCKASGYTFTSYAMHWVRQAPGQRLEWMGWINAGNGNTKYSQKFQGRVTITRDTSASTAYMELSSLRSEDTAVYYCALLTVVTPDDAFDIWGQGTMVTVSS VL: not shown |  |  |  |  | binds
7 | m43.160 Fab (Fab, V domains shown, also called m43_HH28K.26) VH: QVQLVQSGAEVKKPGASVKVSCKASGYTFTSYAIHWVRQAPGQRLEWMGWIKAGNGNTRYSQKFQGRVTITRDTSASTAYMELSSLRSEDTAGYYCALLTVITPDDAFDIWGQGTMVTVSS VL: not shown |  | 957 | 36.8 | 1820 | 
8 | inferred germline CIS43 (iGL-CIS43) Fab (Fab, V domains shown, also called CIS43 gHgL; iGL-CIS43_UCA) VH: QVQLVQSGAEVKKPGASVKVSCKASGYTFTSYAMHWVRQAPGQRLEWMGWINAGNGNTKYSQKFQGRVTITRDTSASTAYMELSSLRSEDTAVYYCALLTVVTPDDAFDIWGQGTMVTVSS VL: not shown |  | 9650 | 679 | 5050 | 
9 | NVDPNANPNANPNAN (also called PfCSP peptide 27) [27: NVDPNANPNANPNAN] | binds |  |  |  | 
